US20170029530A1 (AbbVie / Abbott, published 2017)
Several values for one entry are separate records, joined by “and”; a condition that tells them apart may be missing. Identical values can stand only once.

T1: rat DPEP3 ECD with histidine tag (rat, UniProt Q5U2X4 36-459, limits assumed)
T1 construct: also called rDPEP3-His; ratDPEP3-His; not shown: histidine tag
T1 sequence: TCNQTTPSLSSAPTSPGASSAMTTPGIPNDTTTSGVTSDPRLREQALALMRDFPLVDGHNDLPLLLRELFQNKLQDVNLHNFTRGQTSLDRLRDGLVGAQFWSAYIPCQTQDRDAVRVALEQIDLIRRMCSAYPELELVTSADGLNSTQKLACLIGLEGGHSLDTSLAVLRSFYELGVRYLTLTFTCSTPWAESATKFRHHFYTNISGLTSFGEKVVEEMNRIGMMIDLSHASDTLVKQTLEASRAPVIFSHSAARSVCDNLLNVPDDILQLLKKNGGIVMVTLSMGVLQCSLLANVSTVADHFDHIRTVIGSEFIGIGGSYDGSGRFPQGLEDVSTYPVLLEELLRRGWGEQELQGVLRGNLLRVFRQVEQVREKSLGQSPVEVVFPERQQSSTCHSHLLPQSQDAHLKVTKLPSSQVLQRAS

T2: mDPEP3 (limits assumed)
T2 construct: also called mouse DPEP3-His; mouse DPEP3 ECD with histidine tag
T2 single chain: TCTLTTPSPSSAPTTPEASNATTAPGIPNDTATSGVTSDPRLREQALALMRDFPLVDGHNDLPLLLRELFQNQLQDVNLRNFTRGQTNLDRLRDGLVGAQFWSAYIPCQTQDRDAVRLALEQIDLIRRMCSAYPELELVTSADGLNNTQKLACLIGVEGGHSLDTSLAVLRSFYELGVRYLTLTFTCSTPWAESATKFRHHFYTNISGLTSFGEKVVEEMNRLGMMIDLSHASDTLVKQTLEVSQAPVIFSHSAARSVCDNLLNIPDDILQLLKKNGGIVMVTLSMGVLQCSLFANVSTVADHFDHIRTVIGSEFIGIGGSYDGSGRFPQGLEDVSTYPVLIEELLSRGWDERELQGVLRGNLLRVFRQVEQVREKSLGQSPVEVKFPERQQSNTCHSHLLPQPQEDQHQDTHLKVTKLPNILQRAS

T3: cDPEP3 (Macaca fascicularis, UniProt Q4R7M2)
T3 construct: extracellular domain; also called cynomolgus DPEP3-His; cynomolgus DPEP3 ECD with histidine tag
T3 sequence (single chain, looked up): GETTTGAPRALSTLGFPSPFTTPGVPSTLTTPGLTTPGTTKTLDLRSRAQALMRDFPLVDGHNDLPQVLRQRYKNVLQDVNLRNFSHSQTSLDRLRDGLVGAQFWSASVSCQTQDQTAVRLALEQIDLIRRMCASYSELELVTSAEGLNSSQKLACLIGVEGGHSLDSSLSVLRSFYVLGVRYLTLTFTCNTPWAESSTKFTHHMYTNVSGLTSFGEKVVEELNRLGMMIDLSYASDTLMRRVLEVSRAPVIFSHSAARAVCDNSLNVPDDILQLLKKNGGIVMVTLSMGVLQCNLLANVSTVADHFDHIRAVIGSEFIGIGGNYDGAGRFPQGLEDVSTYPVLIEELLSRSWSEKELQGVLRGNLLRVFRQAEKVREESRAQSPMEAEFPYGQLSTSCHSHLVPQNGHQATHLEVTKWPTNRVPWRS

T4: hDPEP3-ECD-His (human, UniProt Q9H4B8 36-463)
T4 construct: also called hDPEP3-His; monomeric hDPEP3-His antigen; not shown: histidine tag
T4 sequence: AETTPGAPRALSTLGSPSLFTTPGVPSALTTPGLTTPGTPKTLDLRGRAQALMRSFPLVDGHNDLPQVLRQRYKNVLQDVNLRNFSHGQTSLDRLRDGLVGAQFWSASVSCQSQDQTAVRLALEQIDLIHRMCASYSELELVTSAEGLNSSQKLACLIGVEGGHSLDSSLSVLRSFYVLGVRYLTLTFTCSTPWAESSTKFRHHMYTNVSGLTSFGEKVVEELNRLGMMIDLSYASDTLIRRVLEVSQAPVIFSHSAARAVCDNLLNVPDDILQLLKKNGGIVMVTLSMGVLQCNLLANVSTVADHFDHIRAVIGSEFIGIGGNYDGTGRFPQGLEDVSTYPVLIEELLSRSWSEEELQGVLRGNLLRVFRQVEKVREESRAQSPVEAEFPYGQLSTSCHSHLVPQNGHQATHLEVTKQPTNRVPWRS


Assays:
[1] = biological target: T1, rat DPEP3 ECD with histidine tag; assay: ELISA, coated antigen
mDPEP3 = biological target: T2, mDPEP3; assay: ELISA, coated antigen
cDPEP3 = biological target: T3, cDPEP3; assay: ELISA, coated antigen
[2] = biological target: T5, hDPEP2 ECD with histidine tag (human, UniProt Q9H4A9 33-463); assay: ELISA, coated antigen
T5 construct: also called hDPEP2-His; not shown: histidine tag

hDPEP3-ECD-His = biological target: T4, hDPEP3-ECD-His; assay: BLI ForteBio RED, 200 nM hDPEP3-His, estimated grade
How it was run: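 Antibodies were captured on anti-mouse Fc biosensors to 0.3-1 units, then exposed to hDPEP3-His for a 4 min association and a 3 min dissociation at 1000 rpm. A control mouse IgG response was subtracted, and KD was estimated qualitatively from the curves. Sensors were regenerated with 10 mM glycine, pH 1.7.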

T5 sequence (Q9H4A9 33-463): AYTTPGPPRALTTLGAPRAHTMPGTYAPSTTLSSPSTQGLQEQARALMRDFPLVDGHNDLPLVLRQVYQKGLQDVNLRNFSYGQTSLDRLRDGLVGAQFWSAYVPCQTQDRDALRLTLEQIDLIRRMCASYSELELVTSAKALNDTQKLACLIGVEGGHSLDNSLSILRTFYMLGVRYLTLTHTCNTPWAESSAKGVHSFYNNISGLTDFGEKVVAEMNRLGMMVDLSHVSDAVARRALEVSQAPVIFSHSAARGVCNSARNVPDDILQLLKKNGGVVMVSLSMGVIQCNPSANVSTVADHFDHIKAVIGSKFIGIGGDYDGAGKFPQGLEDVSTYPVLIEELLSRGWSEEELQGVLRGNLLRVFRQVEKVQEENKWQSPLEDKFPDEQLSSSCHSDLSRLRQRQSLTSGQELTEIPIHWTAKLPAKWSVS

Row | Binder | binding result [1] | binding result (mDPEP3) | binding result (cDPEP3) | binding result [2] | Kd (hDPEP3-ECD-His)
1 | SC34.28 mouse anti-DPEP3 antibody (antibody, V domains shown, Mouse hybridoma antibody, the source of hSC34.28) VH: QVQLQQSGAELMKPGASVKISCKATGYTFSSYWIEWVKQRPGHGLEWIGEILPGSGNTYYNERFKDKATFTADTSSNTAYMQLSSLTSEDSAVYYCARRAAAYYSNPEWFAYWGQGTLVTVSA VL: QIVLTQSPAIMSASLGERVTMTCTASSSVNSFYLHWYQQKPGSSPKLWIHSTSNLASGVPGRFSGSGSGTSYSLTISSMEAEDAATYYCHQYHRSPYTFGGGTKLEIK | no binding (tested: 1 ug/mL) | no binding (tested: 1 ug/mL) | no binding (tested: 1 ug/mL) | no binding (tested: 1 ug/mL) | ≥ 5 nM and ≤ 10 nM
2 | SC34.33 (antibody, mouse IgG1, V domains shown) VH: QVQLQQSGAELMKPGASVKISCKATGYTFSSYWIEWVKQRPGHGLEWIGEILPGSDKTYYNERFKDKATFTADTSSNTAYMQLSSLTSEDSAVYYCTRRAAAYYSNPEWFAYWGQGTLVTVSA VL: QIVLTQSPAIMSASLGERVTMTCTASSSVNSFYLHWYQQKPGSSPKLWIHSTSNLASGVPGRFSGSGSGTSYSLTISSMEAEDAATYYCHQYHRSPYTFGGGTKLEIK | no binding (tested: 1 ug/mL) | no binding (tested: 1 ug/mL) | no binding (tested: 1 ug/mL) | no binding (tested: 1 ug/mL) | ≥ 5 nM and ≤ 10 nM
3 | SC34.40 (antibody, mouse IgG2a, V domains shown) VH: EVQLQESGPGLAKPSQTLSLTCSVTGYSITSDYWNWIRKFPGNKLEYMGYITYSGSTYYNPSLKSRISITRDTSKNQYYLQLNSVTTEDTATYYCARARVYYYDGRYGRAMDYWGQGTSVTVSS VL: DIQMTQSPASLSASVGETVTMTCRASENIYSNLAWYQQKQGKSPQVLVYAATNLADGVPSRFSGSESGTQFSLKINSLQPEDFGSYYCQHFYGTPWTFGGGTKLEIK | no binding (tested: 1 ug/mL) | no binding (tested: 1 ug/mL) | no binding (tested: 1 ug/mL) | no binding (tested: 1 ug/mL) | ≥ 5 nM and ≤ 10 nM
4 | SC34.21 (antibody, mouse IgG1, V domains shown) VH: EVQLQQSGPELVKPGTSMKISCKASGYSFTGYTMNWVKQSHGKNLEWIGLIYPYNDDTRYNRKFKGKATLTVDKSSNTAYMELLSLTSVDSAVCYCARGSYGSPFFDVWGAGTTVTVSS VL: not shown | no binding (tested: 1 ug/mL) | no binding (tested: 1 ug/mL) | no binding (tested: 1 ug/mL) | no binding (tested: 1 ug/mL) | < 5 nM
5 | SC34.26 (antibody, mouse IgG2b, V domains shown) VH: QVQLQQPGAELVKPGASVTLSCKASGYTFTSYYIYWVKQRPGEGLEWIGEINPSNGGPNFNERFKNKATLTVDKSSSTAYMQLSSLTSEDSAVYYCTRGLLYYDYDRGFAYWGQGTLVTVSA VL: not shown | no binding (tested: 1 ug/mL) | no binding (tested: 1 ug/mL) | no binding (tested: 1 ug/mL) | no binding (tested: 1 ug/mL) | > 10 nM

More lines, now with the values ahead:

Row | binding result [1] | binding result (mDPEP3) | binding result (cDPEP3) | binding result [2] | Kd (hDPEP3-ECD-His) | Binder
6 | no binding (tested: 1 ug/mL) | no binding (tested: 1 ug/mL) | no binding (tested: 1 ug/mL) | no binding (tested: 1 ug/mL) | > 10 nM | SC34.49 (antibody, mouse IgG1, V domains shown) VH: EVQLQQSGPELVKPGSSVKISCKASGYTFTDYHMNWVKQSHGKSLEWIGNINPYYGVSTYNQNLKGTATLTVDKSSSTAYMELRGLTSEDSAVYYCVRRAMDSPRFAYWGQGTLVTVSA VL: DIQMTQSSSYLSVSLGGRVTITCKASEHINNWLAWYQQKPGNPPRLLISGATSLETGVPSRFSGSGSGKDYTLSITGLQTEDIATYFCQQYRSTPFTFGSGTKLEIK
7 | no binding (tested: 1 ug/mL) | no binding (tested: 1 ug/mL) | no binding (tested: 1 ug/mL) | no binding (tested: 1 ug/mL) | > 10 nM | SC34.41 (antibody, mouse IgG1, V domains shown) VH: EVKLVESGGGLVKPGGSLKLSCAASGFTFTSYTMSWVRQTPAKRLEWVATISTGGGNTYYPDIVKGRFTISRDNARSTLYLQMSSLRSEDSAMYYCARRFYDGSYNYWYFDVWGAGTTVTVSS VL: DIQMIQSPSSMFASLGDRVSLSCRASQGIRGNLDWYQQKPGGTIKLLIYSTSNLNSGVPSRFSGSGSGSDYSLTISSLESEDFADYYCLQRDAYPYTFGGGTKLEIK
8 | no binding (tested: 1 ug/mL) | no binding (tested: 1 ug/mL) | no binding (tested: 1 ug/mL) | no binding (tested: 1 ug/mL) | < 5 nM | SC34.18 (antibody, mouse IgG2b, V domains shown) VH: QVSLKESGPGILQPSQTLSLTCSFSGFSLSTSGMGVGWIRQPSGKGLEWLANIWWDDSIYYNTALKSRLTISKDTSKNQVFLKIASVDTADTATYSCARIESYYGNRAWFAYWGQGTLVTVSA VL: DIVMTQSQKFMSTSVGDRVSITCKASQNVRTAVGWYQQKPGQSPKTLIYLASNRHTGVSDRFTGSGSGTDFTLTISNVQSEDLADYFCLQHWNYPWTFGGGTKLEIK
9 | no binding (tested: 1 ug/mL) | no binding (tested: 1 ug/mL) | no binding (tested: 1 ug/mL) | no binding (tested: 1 ug/mL) | ≥ 5 nM and ≤ 10 nM | SC34.53 mouse anti-hDPEP3 antibody (antibody, V domains shown, Mouse hybridoma antibody) VH: QVQLQQPGAELVKPGASVTLSCKASGYTFTSYYIYWVKQRPGEGLEWIGEIDPSNGGPNFNDRFKNKATLTVDKSSSTAYMQLSSLTSEDSAVYYCTRGLLYYDYDRGFAYWGQGTLVTVSA VL: not shown
10 | no binding (tested: 1 ug/mL) | no binding (tested: 1 ug/mL) | no binding (tested: 1 ug/mL) | no binding (tested: 1 ug/mL) | < 5 nM | SC34.38 (antibody, mouse IgG2b, V domains shown) VH: QVQLQQPGAELVKPGASVTLSCKASGYTFTSYYMYWVKQRPGEGLEWIGEINPSNGGANFNERFKNKATLTVDKSSSTAYMQLSSLTSEDSAVFYCTRGLLYYDYDRGFAYWGQGTLVTVSA VL: not shown
11 | no binding (tested: 1 ug/mL) | no binding (tested: 1 ug/mL) | no binding (tested: 1 ug/mL) | no binding (tested: 1 ug/mL) | > 10 nM | SC34.50 (antibody, mouse IgG2b, V domains shown) VH: QVQLQQPGAELVRPGASVKLSCKASGYTFTSYWINWVKQRPGQGLEWIGNIFPSDSYTNYNQKFRDKATLTVDKSSSTAYMQLSSPTSEDSAVYYCTIRTYGNYFDYWGQGTTLTVSS VL: DIQMTQSSSSFSVSLGDRVTITCKASEDIYNRLAWYQQKPGNAPRLLISGATSLETGVPSRFSGSGSGKDYTLSITSLQTEDVATYYCQQYWSTIFTFGSGTKLEIK
